Test results reported in patent US20230038638A1, “COMPLEMENT FACTOR I-RELATED COMPOSITIONS AND METHODS” (published 2023).

How the values were obtained:
[1] = target: soluble human C3b (human) (UniProt P01024)
human C4b (human) = target: T1, human C4b (human) (UniProt P0C0L4)
T1 sequence: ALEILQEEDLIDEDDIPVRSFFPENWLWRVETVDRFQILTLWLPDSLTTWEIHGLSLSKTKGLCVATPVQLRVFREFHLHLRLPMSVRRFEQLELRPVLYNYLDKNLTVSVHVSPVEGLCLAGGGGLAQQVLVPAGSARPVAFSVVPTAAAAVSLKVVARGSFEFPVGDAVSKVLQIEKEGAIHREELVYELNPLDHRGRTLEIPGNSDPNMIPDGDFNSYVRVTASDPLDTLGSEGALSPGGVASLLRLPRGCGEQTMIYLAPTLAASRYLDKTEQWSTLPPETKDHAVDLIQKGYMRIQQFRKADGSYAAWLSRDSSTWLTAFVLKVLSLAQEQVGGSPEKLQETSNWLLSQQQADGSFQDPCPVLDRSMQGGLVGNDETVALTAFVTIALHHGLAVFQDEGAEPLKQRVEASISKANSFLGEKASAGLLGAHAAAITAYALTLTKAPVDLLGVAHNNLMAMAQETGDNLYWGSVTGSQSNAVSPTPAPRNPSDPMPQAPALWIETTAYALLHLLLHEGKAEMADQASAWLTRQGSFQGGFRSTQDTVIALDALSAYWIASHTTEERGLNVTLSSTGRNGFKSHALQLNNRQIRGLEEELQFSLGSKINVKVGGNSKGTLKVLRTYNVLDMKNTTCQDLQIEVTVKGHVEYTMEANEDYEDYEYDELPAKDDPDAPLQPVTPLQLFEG

Substance	iC3b Screen Ref Fold (fold of CFI-HSA wild type) [1]	C4b Screen Ref Fold (fold of CFI-HSA wild type) (human C4b (human))	iC3b Screen Ref Fold (fold of reference) [1]	C4b Screen Ref Fold (fold of reference) (human C4b (human))
CFI-HSA variant I391G (enzyme)	0.01	0.03	–	–
CFI-HSA variant I560V (enzyme)	–	–	1.31	1.27
CFI-HSA variant K14A; Y20F; D26A; R35A; E38A (enzyme)	–	–	0.11	0.15
CFI-HSA variant K312A (enzyme)	–	–	0.84	0.09
CFI-HSA variant K312A; R314A (enzyme)	–	–	0.48	0.58
CFI-HSA variant K340G (enzyme)	–	–	-0.01	0.15
CFI-HSA variant K340G; I345G (enzyme)	–	–	0	0.14
CFI-HSA variant K387G (enzyme)	0.23	0.37	–	–
CFI-HSA variant K418G (enzyme)	–	–	0.39	0.69
CFI-HSA variant K419G (enzyme)	0.78	0.21	–	–
CFI-HSA variant K458A (enzyme)	–	–	0.71	0.11
CFI-HSA variant K504R; P558S (enzyme)	1.19	0.17	–	–
CFI-HSA variant K504R; S507A (enzyme)	-0.02	0.18	–	–
CFI-HSA variant L304G; P305G; K306G; L307G; S308G (enzyme)	–	–	0.56	0
CFI-HSA variant L386G (enzyme)	0.54	0.07	–	–
CFI-HSA variant N52Q; N159Q (enzyme)	1.39	0.56	–	–

Substance	iC3b Screen Ref Fold (fold of CFI-HSA wild type) [1]	C4b Screen Ref Fold (fold of CFI-HSA wild type) (human C4b (human))	iC3b Screen Ref Fold (fold of reference) [1]	C4b Screen Ref Fold (fold of reference) (human C4b (human))
CFI-HSA variant N422K; E457G; E461Q; N531G (enzyme)	2.02	3.52	–	–
CFI-HSA variant N422K; S507A (enzyme)	-0.03	0.03	–	–
CFI-HSA variant N476Q; N518Q (enzyme)	1.28	0.15	–	–
CFI-HSA variant N531E (enzyme)	–	–	0.82	3.96
CFI-HSA variant N531G; S507A (enzyme)	-0.03	-0.07	–	–
CFI-HSA variant N531H (enzyme)	–	–	0.74	1.16
CFI-HSA variant N531I (enzyme)	–	–	0.24	0.36
CFI-HSA variant N531M; Y403F; K504Y; E457G; E461Q (enzyme)	0.7	3.46	–	–
CFI-HSA variant N531P (enzyme)	–	–	-0.01	0.08
CFI-HSA variant N531R (enzyme)	–	–	0.75	0.58
CFI-HSA variant N531T (enzyme)	–	–	0.19	0.31
CFI-HSA variant N531V (enzyme)	–	–	0.57	0.75
CFI-HSA variant N531W (enzyme)	–	–	0.29	0.95
CFI-HSA variant N531Y (enzyme)	–	–	0.91	2.94
CFI-HSA variant P558G (enzyme)	–	–	1.21	0.4
CFI-HSA variant P558S (enzyme)	–	–	1.56	0.77
